Columns and labels:
Activin AC [1] = target: T1, Activin AC (human, UniProt P55103 237-352); assay: cell-based or functional assay
T1 sequence 1: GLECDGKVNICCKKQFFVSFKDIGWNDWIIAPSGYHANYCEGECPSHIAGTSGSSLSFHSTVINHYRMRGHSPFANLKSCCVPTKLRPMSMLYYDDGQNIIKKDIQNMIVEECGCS
T1 sequence 2: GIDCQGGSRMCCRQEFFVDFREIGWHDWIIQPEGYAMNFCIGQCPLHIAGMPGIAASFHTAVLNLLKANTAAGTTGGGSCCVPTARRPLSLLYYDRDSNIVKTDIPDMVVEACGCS

Activin AB [2] = target: T2, Activin AB (human, UniProt P08476 311-426; P09529 293-407); assay: cell-based or functional assay
T2 chain 1: T1 sequence 1
T2 chain 2: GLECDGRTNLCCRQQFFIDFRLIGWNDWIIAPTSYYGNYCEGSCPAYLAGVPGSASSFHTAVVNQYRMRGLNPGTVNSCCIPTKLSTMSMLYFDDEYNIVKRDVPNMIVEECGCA

Activin B [3] = target: T3, Activin B (human, UniProt P09529 293-407); assay: cell-based or functional assay
T3 chain: T2 chain 2

Activin A [4] = target: T4, Activin A (human, UniProt P08476 311-426); assay: cell-based or functional assay
T4 sequence: T1 sequence 1

Activin AB [5] = target: T2, Activin AB; assay: SPR (Biacore), mAb captured on anti-Fc, Activin AB injected, 37 C
In short: (§1)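 Reported half-lives follow ln2/(60*kd) in minutes, with KD taken as kd/ka. Both rest on fits to binding data from 240 s of association and 600 s of buffer dissociation.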

Activin AB [6] = target: T2, Activin AB; assay: SPR (Biacore), mAb captured on anti-Fc, Activin AB injected, 25 C
In short: as §1

Activin AC [7] = target: T1, Activin AC; assay: SPR (Biacore), mAb captured on anti-Fc, Activin AC injected, 25 C
In short: as §1

GDF11 = target: T5, GDF11 (human, UniProt O95390 299-407); assay: SPR (Biacore 4000), captured on anti-human Fc, 200 nM ligand injected, 37 C
T5 construct: Bought protein; also called hGDF11
Experimental: (§2) For the binding experiment, a Biacore 4000 instrument was used. […] All Biacore binding studies were performed in HBS-T running buffer (0.01 M HEPES pH 7.4, 0.5 M NaCl, 3 mM EDTA, 0.5 mg/ml bovine serum albumin, 0.05% v/v Surfactant P20). […] All binding measurements were performed at 37° C. […] Over the captured antibody surface was injected the TGF-beta family ligands through concentrations ranging from 3.1 nM to 200 nM.

Activin AC [8] = target: T1, Activin AC; assay: as above
Experimental: as §2

Activin AB [9] = target: T2, Activin AB; assay: as above
Experimental: as §2

Activin B [10] = target: T3, Activin B; assay: as above
Experimental: as §2

hBMP2 = target: T6, hBMP2 (human, UniProt P12643 283-396); assay: as above
T6 construct: Bought protein; also called BPM2
Experimental: as §2

hBMP6 = target: T7, hBMP6 (human, UniProt P22004 382-513, limits assumed); assay: as above
T7 construct: Bought protein
T7 sequence (looked up): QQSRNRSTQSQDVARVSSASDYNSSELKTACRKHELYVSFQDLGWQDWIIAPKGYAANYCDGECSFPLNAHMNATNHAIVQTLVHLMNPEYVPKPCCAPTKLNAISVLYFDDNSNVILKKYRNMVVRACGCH
Experimental: as §2

hBMP4 = target: T8, hBMP4 (human, UniProt P12644 293-408); assay: as above
T8 construct: Bought protein
T8 sequence (looked up): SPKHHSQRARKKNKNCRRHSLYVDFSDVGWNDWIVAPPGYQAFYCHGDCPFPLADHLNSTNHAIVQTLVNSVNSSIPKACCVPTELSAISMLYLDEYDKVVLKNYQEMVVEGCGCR
Experimental: as §2

hBMP9 = target: T9, hBMP9 (human, UniProt Q9UK05 320-429); assay: as above
T9 construct: Bought protein
T9 sequence (looked up): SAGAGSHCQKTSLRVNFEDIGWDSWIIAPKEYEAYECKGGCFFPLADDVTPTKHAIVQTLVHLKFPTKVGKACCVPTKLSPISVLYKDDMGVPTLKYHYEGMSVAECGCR
Experimental: as §2

hBMP10 = target: T10, hBMP10 (human, UniProt O95393 317-424); assay: as above
T10 construct: Bought protein
T10 sequence (looked up): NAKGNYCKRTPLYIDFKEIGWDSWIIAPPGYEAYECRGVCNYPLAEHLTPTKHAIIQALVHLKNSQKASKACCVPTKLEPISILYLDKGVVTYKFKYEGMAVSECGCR
Experimental: as §2

GDF8 = target: T11, GDF8 (human, UniProt O14793 267-375); assay: as above
T11 construct: Bought (R&D Systems #788-G8); also called hGDF8; growth and differentiation factor-8
Experimental: as §2

Activin A [11] = target: T4, Activin A; assay: as above
Experimental: as §2

Activin AC [12] = target: T1, Activin AC; assay: SPR (Biacore), mAb captured on anti-Fc, Activin AC injected, 37 C
In short: as §1

T5 sequence (O95390 299-407 limits assumed): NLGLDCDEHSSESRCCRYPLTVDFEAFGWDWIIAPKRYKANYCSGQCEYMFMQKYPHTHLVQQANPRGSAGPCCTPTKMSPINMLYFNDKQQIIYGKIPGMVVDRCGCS
T6 sequence (P12643 283-396 limits assumed): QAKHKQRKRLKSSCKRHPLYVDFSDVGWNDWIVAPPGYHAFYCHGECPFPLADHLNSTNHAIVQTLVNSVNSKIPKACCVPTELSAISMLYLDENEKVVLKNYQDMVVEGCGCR

B1: H4H10429P (antibody, human IgG4, V domains shown)
VH: QVQLVESGGGVVQPGRSLRLSCVASGFTVSSYGIHWVRQAPGKGLEWVSVIWYDGRNKDYADSVKGRFTISRDNSKNTVYLEMKGLRAEDTALYYCARDKTGDFDSWGQGTLVTVSS
VL: DIQMTQSPSSLSASVGDRVTITCRASQNINSFLSWYQQKPGKAPKFLIYDASSIQSGAPSRFSGSGSGTDFTLTISSLQPEDFATYYCQQSYSSPFTFGQGTKLEIK
IC50 [M], inhibition of 4 nM Activin AC in A204/CAGAx12-Luc Smad2/3-luciferase bioassay (Activin AC [1]): 5.8e-10 M
IC50 [M], inhibition of 30 pM Activin AB in A204/CAGAx12-Luc Smad2/3-luciferase bioassay (Activin AB [2]): 2.9e-10 M
IC50 [M], inhibition of 50 pM Activin B in A204/CAGAx12-Luc Smad2/3-luciferase bioassay (Activin B [3]): 7.9e-08 M
IC50 [M], inhibition of 100 pM Activin A in A204/CAGAx12-Luc Smad2/3-luciferase bioassay (Activin A [4]): 1.6e-10 M
50 nM Ag Bound (RU) (Activin AB [5]): 50 RU
Kd (Activin AB [5]): 0.0755 nM
koff (Activin AB [5]): 0.000488 s⁻¹
kon (Activin AB [5]): 6.47e+06 M⁻¹ s⁻¹
t1/2 (Activin AB [5]): 0.393 h
50 nM Ag Bound (RU) (Activin AB [6]): 40 RU
Kd (Activin AB [6]): 0.0228 nM
koff (Activin AB [6]): 0.000103 s⁻¹
kon (Activin AB [6]): 4.53e+06 M⁻¹ s⁻¹
t1/2 (Activin AB [6]): 1.86 h
50 nM Ag Bound (RU) (Activin AC [7]): 28 RU
Kd (Activin AC [7]): 0.0997 nM
koff (Activin AC [7]): 9.1e-05 s⁻¹
kon (Activin AC [7]): 913000 M⁻¹ s⁻¹
t1/2 (Activin AC [7]): 2.12 h
binding response (resonance units) for 200 nM ligand (GDF11): 1.6 RU
binding response (resonance units) for 200 nM ligand (Activin AC [8]): 43.1 RU
binding response (resonance units) for 200 nM ligand (Activin AB [9]): 76.5 RU
binding response (resonance units) for 200 nM ligand (Activin B [10]): 51.5 RU
binding response (resonance units) for 200 nM ligand (hBMP2): 3.6 RU
binding response (resonance units) for 200 nM ligand (hBMP6): 4.6 RU
binding response (resonance units) for 200 nM ligand (hBMP4): 1.1 RU
binding response (resonance units) for 200 nM ligand (hBMP9): 33.4 RU
binding response (resonance units) for 200 nM ligand (hBMP10): 32.4 RU
binding response (resonance units) for 200 nM ligand (GDF8): -0.4 RU
binding response (resonance units) for 200 nM ligand (Activin A [11]): 56.8 RU
50 nM Ag Bound (RU) (Activin AC [12]): 35.7 RU
Kd (Activin AC [12]): 0.462 nM
koff (Activin AC [12]): 0.00062 s⁻¹
kon (Activin AC [12]): 1.34e+06 M⁻¹ s⁻¹
t1/2 (Activin AC [12]): 0.31 h

From US20150037339A1 (Regeneron, published 2015)
